These results are taken from patent US11739132B2, “Separation moieties and methods of use thereof” (Werewolf Therapeutics, Inc., priority 2019, dated 2023).

The target of one assay is T1, Hepsin (Homo sapiens, UniProt P05981).
T1 construct: purchased R&D Systems (Bio-techne) 4776-SE
Description: 30-mer library counter-screening MSP-MS, Hepsin. The assay is classed as biochemical. Particulars: for Apparent catalytic efficiency, hepsin: order of magnitude. The method, then: (§1) Protease specificity screening was performed using Multiplexed Substrate Profiling by Mass Spectrometry (MSP-MS), the method described in, e.g. O'Donoghue A. J. et al., Nat Methods., 2012; 9(11): 1095-1100. This method employs a physico-chemically diverse peptide library as substrates for proteases, and reactions are monitored over time with mass spectrometric detection of cleaved products. The resulting cleavages are assessed for specific cleavage in the enzyme-treated sample by comparison with results from a no-enzyme control incubation.
(§2) Enzymes were activated and assayed following the manufacturer's recommendations.
Hepsin was pre-activated overnight at 37° C. in the manufacturer recommended buffer: 100 mM TRIS, 10 mM CaCl2, 150 mM NaCl, 0.05% Brij-35, pH 8.0. Activity was measured with 2.4 or 24 nM enzyme in the buffer: 50 mM TRIS HCl at pH 7.4.
(§3) Counter-screening was performed against the enzymes Thrombin, Factor Xa and Hepsin using this library as well, and for calibration of activity, a positive-control peptide bearing favorable motifs for these enzymes was also designed (ALU30-19).
(§4) Catalytic efficiency (kcat/KM) estimations were used to rank the top cleaved substrates in the MSP-MS reaction. Peptides were quantified by mass spectrometric label-free quantitation from the MS1 precursor ion peak areas for each peptide. Enzyme progress curves were modeled from six-time point measurements in GraphPad Prism. Data were fitted using non-linear least squares fitting to the first order kinetics equation:
(§5) [formula] where Y=percent product formation or substrate consumption, and t=time. The observed rate is a function of the enzyme concentration [E0], and an observed catalytic efficiency (kcat/KM) in units M^−1s^−1
(§6) Counter-screening with Thrombin, Factor Xa and Hepsin was also performed following the same analysis. The library peptide Alu30-19 was designed to include authentic sites for each enzyme, for comparison of overall cleavage efficiency as well as cleavage site specificity within each motif. The substrate designed for Factor Xa has the motif FNPR|TFGS (SEQ ID NO: 248), derived from the Factor Xa cleavage site in Thrombin. The substrate motif for Thrombin was FPR|, a common tool substrate motif. The substrate motif for hepsin was RKRR|GSRG (SEQ ID NO: 249) from filaggrin.

Another assay addresses T2, Thrombin (Homo sapiens, UniProt P00734).
T2 construct: purchased R&D Systems (Bio-techne) 2196-SE-200
Description: 30-mer library counter-screening MSP-MS, Thrombin. The class given is biochemical. The procedure: as §1, §2
Thrombin was activated following the manufacturer's recommended conditions by pre-incubation with the enzyme with thermolysin for 15 min, and then the thermolysin was quenched with 1,10 phenanthroline treatment. Activated thrombin was assayed at 1.2 nM in activation buffer: 50 mM TRIS HCl, 10 mM CaCl2, 150 mM NaCl, 0.05% (w/v) Brij-35, pH 7.5.
as §3, §4, §5, §6
A general note: The purpose of a counterscreen is to sort out artefacts and off-target activity.

Assay [1] concerns conditioned media from MC38, CT26, CT26 pLVX MMP9-5T4+dox and myofibroblast cell lines. Description: FRET end-point screen of conditioned media. The class given is biochemical, mouse. Conditions: for Ratio of tumor vs control activity, end-point screen: three tumor cell lines vs myofibroblast cell line, complete (+FBS) media, 10 μM substrate. The source says: Proteolytic activity was screened in the conditioned media samples by fluorescent resonance energy transfer (FRET) assays with the substrates listed in Table 10.
(§7) Conditioned media and cell lysate samples were received from Charles River Laboratories for the murine colon cancer cell lines: MC38 (epithelial), CT26 (fibroblast), and CT26 transduced with a lentivirus for doxycyclin-inducible expression of MMP9 (CT26 pLVX MMP9-5T4+dox). An immortalized mouse intestinal myofibroblast cell line (ABM Good #T0565) was used as a control stromal cell line, grown under manufacturer recommended conditions. Conditioned media and cell lysate samples were also received for screening purposes from ABM Good for the immortalized mouse colonic epithelial cell line YAMC (ABM Good #T0567).
Conditioned media samples were prepared according to the standard protocol using logarithmic phase cells. Briefly, cells were grown for 16h in either serum-free media or in complete media containing 10% fetal bovine serum (FBS). After conditioned media collection, the adherent cells were washed then lysed on plate with non-denaturing lysis buffer to produce a lysed “cell pellet” to capture any activity that remained associated with the cells. All cell culture-derived conditioned media samples, cell lysates from Charles River Laboratories, and cell lysates derived internally were processed with identical methods, to allow comparison between samples.
The resulting conditioned media was buffer exchanged with PBS and concentrated to 10× the original titer as a stock solution.
FBS background controls were therefore used for baseline subtraction at each concentration of substrate throughout the FRET experiments.
(§8) In the end-point screening assays, a fixed titer of 10× concentrated sample and a substrate concentration of 10 μM was used. Values reported in the end-point experiments are initial velocity measurements, in relative fluorescence units (RFU) per second. End-point measurements are a starting point for a screen, but the rate of the reaction is non-linearly related to substrate concentration. Therefore, a more accurate representation of activity would be given by steady-state kinetic measurements covering a range of substrate concentrations. To compare activity across cell lines, the data were treated with a Michaelis-Menten model, and the concentration of equivalent enzyme units [E0] was solved.

Assay [2] has as its system conditioned media from tumor, myofibroblast and YAMC cell lines. Description: FRET steady-state kinetics of conditioned media (enzyme equivalents). The assay is classed as biochemical, mouse. Particulars: for Secreted activity in conditioned media, steady-state kinetics: tumor cell lines.
Text: as §7, §8
Accordingly, initial velocity was measured as a function of substrate concentration, using a 2-fold dilution series from 250 to 1 μM. Data were fitted using non-linear least squares fitting with GraphPad Prism software v 8.0 to the Michaelis-Menten equation:
[formula] where kcat is the rate of product formation under steady-state conditions in units (s^−1), and KM is the Michaelis constant that gives the substrate concentration in molar units (M) at which half maximum velocity of the reaction is produced for a given enzyme, [E0] is the enzyme concentration, and [S] the substrate concentration in (M).
In the assays where purified recombinant enzyme is used, the Michaelis-Menten parameters are as classically defined above. For conditioned media samples, the effective titer of conditioned media per assay was adjusted to approximately a 2× concentrate of the original unprocessed media samples to assure that the detection range matched the signal produced. The enzyme component in the calculation is redefined as a mixture of possible proteases that contribute to the cumulative observed activity, each with intrinsic reactivity toward a substrate. In this case, it is more appropriate to consider kcat and KM as macroscopic constants that represent the overall efficiency of catalysis, and E0 is an enzyme equivalent, expressed in units of concentration. To solve the data fit, kcat/KM can be fixed at that of the recombinant enzyme and enzyme equivalents per cell culture volume can be output. The effective titer of enzyme equivalents in this case can be used to compare the activity produced by the different cell lines.
An immortalized mouse colonic epithelial cell line (YAMC) was used to test activity in the presence of additional control “normal” epithelial cells. YAMC's are given the calculated enzyme equivalents (nM) resulting from all of these steady state experiments, to allow for comparison of the amount of equivalent activity per sample. For example, the YAMC control epithelial cell line produced activity with the ADAM17_2 substrate equivalent to that of 0.52±0.03 nM of ADAM17 recombinant enzyme. This cell line compares directly to MC38, also of epithelial origin, which had activity equivalent to that of 0.32±0.03 nM of ADAM17 recombinant enzyme. […] This cell line required non-standard cell culture conditions, including growth with murine IFNγ, and at low temperature to maintain, and may not be fully representative of epithelial cell lines.

The target of a further assay is T3, FAPα (Homo sapiens, UniProt Q12884).
T3 construct: purchased R&D Systems (Bio-techne) 930-ADB-010
T3 sequence (Q12884 1-760): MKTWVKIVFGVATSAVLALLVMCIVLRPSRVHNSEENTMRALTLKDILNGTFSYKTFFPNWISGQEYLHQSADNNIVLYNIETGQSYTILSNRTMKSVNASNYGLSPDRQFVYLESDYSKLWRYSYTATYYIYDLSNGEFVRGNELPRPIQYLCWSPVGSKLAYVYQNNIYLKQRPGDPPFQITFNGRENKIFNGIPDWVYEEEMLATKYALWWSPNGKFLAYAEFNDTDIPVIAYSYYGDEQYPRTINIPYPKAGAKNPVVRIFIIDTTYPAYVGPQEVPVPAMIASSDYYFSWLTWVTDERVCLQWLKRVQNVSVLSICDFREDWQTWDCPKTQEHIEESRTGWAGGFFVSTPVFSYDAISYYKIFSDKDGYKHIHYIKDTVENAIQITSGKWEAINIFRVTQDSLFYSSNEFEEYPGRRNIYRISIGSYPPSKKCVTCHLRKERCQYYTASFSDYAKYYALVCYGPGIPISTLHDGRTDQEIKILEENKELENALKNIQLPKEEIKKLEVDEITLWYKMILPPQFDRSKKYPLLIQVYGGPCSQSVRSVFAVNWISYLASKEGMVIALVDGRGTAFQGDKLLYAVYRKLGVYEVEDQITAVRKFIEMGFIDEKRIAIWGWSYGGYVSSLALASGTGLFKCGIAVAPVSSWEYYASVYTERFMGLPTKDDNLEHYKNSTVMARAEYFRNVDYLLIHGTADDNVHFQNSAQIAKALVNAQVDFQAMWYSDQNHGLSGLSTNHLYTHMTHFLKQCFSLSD
Description: 30-mer tandem linker library MSP-MS, FAPα. The assay is classed as biochemical. The procedure: as §1, §2
FAPα activity was tested with fluorescence detection using a generic Z-GP-AMC substrate. For FRET assays, the final enzyme concentration was 5 nM and the buffer was 50 mM TRIS HCl, 1 M NaCl, 1 mg/mL BSA, pH 7.5.
To analyze the catalytic efficiency of candidate tandem linker designs, a tailored library approach using MSP-MS was applied. For the tailored library, a set of nineteen synthetic peptides, 30 amino acids in length (30-mers), were designed to test whether sequence context affects the efficiency of cleavage. Peptides were assayed in a multiplex format together as a substrate library with individual recombinant enzymes, using MSP-MS. For quantitative comparisons, kinetic analysis was performed over a time course, and results are reported either as a catalytic efficiency kcat/KM for well-behaved first-order kinetics, or as observed rates as kobs for more complex kinetic behavior.
as §4, §5

No end group written: not given here.

T1 sequence (P05981 163-417 limits assumed): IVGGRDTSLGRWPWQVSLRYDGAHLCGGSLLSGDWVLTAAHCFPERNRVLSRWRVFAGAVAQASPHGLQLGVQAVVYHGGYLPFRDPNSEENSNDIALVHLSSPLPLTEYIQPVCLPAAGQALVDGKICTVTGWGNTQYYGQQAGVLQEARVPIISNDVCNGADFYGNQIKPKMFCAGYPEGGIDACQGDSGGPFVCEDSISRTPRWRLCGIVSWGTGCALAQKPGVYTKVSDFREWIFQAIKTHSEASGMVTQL
T1 sequence (P05981 1-162 partner limits assumed): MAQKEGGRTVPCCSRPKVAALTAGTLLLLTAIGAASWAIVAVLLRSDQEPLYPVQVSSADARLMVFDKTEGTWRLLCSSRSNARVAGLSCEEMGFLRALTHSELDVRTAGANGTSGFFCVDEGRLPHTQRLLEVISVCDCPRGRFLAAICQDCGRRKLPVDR

Take “LAQRLRSS (also: Mca fluorophore and Dnp quencher, places not given here) [ADAM17_1, FRET substrate with Mca fluorophore and Dnp quencher]”: in the assay with Hepsin, the “Relative efficiency of cleavage by hepsin” value was “less efficiently cleaved than ADAM17_ 2”.
For the sequence “GGALFKSSFPGPAGLYAQPLAQKLKSSGGK [Alu30-13]”, the “Relative efficiency of 30-mer peptide cleavage by thrombin” value (“Relative efficiency … by thrombin” for short) with Thrombin is “cleaved at lower efficiency”.
Turning to “GGPLAQKLKSSALFKSSFPGPAGLYAQGGR [Alu30-12]”, the “Relative efficiency … by thrombin” value in the assay with Thrombin was “cleaved at lower efficiency”. For the same sequence, the “Apparent catalytic efficiency, hepsin” value in the assay with Hepsin is listed as ~10^5 M^−1s^−1.
As to “LAQKLKSS (also: Mca fluorophore and Dnp quencher, places not given here) [ADAM17_2, FRET substrate with Mca fluorophore and Dnp quencher]”, the “Ratio of tumor vs control activity, end-point screen” value (from here on “Ratio of tumor vs control activity”) in assay [1] is recorded as “approximately 3 fold”. For the same sequence, the “Calculated enzyme equivalents (ADAM17 recombinant enzyme)” value is 0.32 ± 0.03 nM in assay [2] (MC38) and 0.52 ± 0.03 nM in assay [2] (YAMC control epithelial cell line). Moreover, in assay [2], the “Secreted activity in myofibroblast conditioned media, steady-state kinetics” value was “essentially undetectable”.
Consider “RGPGGPAGIGPLAQKLKSSALFKSSFPGGG [Alu30-9]”, for which, in the assay with Hepsin, the “Apparent catalytic efficiency, hepsin” value is on record as ~10^5 M^−1s^−1.
As to “RGGPAGLYAQGGPAGLYAQGGGPAGLYAQK [Alu30-4]”, in the assay with FAPα, the “Relative efficiency of 30-mer peptide degradation by FAPα” value (shortened to “Relative efficiency … by FAPα”) is on record as “highest cleavage activity”. The “Relative efficiency … by thrombin” value with Thrombin is on record as “efficient substrate”.
Regarding “GPAGLYAQ (also: Mca fluorophore and Dnp quencher, places not given here) [MMP14_1, FRET substrate with Mca fluorophore and Dnp quencher]”, the “Cleavage of motif by FAPα” value with FAPα (at PGGP|AGIG and GP|AGLYAQ respectively) was “able to cleave”. In assay [1] (conditioned media), the “Substrate cleavage activity in the end-point screen” value was “high activity”. In addition, the “Substrate cleavage activity, control myofibroblast cell line” value in assay [1] (end-point screen, conditioned media) is reported as “lowest activity”. Further, in assay [1], the “Ratio of tumor vs control activity” value is on record as “approximately 57 fold”. Further, in assay [2], the “Secreted activity in myofibroblast conditioned media, steady-state kinetics” value was “not in the myofibroblast cell line” and the “Secreted activity in conditioned media, steady-state kinetics” value was “significant measurable activity”.
For the sequence “GALFKSSFPSGGGPAGLYAQGGSGKGGSGK [Alu30-1]”, the “Relative efficiency … by thrombin” value with Thrombin is “most rapidly cleaved in the library”.
Turning to “KGGGPAGLYAQGPAGLYAQGPAGLYAQGSR [Alu30-3]”, in the assay with FAPα, the “Relative efficiency … by FAPα” value is reported as “highest cleavage activity”. Also, the “Relative efficiency … by thrombin” value with Thrombin is listed as “most rapidly cleaved in the library”.
For the sequence “KSGPGGPAGIGALFFSSPPLAQKLKSSGGR [Alu30-18]”, the “Relative efficiency … by thrombin” value with Thrombin is reported as “lower cleavage activity”.
Take “GGGALFKSSFPLAQKLKSSPGGPAGIGGGR [Alu30-8]”: in the assay with FAPα, the “Relative efficiency … by FAPα” value was “not cleaved”. Moreover, in the assay with Hepsin, the “Apparent catalytic efficiency, hepsin” value is reported as ~10^5 M^−1s^−1.
On to “RGPLAQKLKSSALFKSSFPGGPAGIGGGGK [Alu30-7]”, for which, in the assay with FAPα, the “Relative efficiency … by FAPα” value is reported as “not cleaved”.
Regarding “RGGALFKSSFPLAQKLKSSGPAGLYAQGGK [Alu30-14]”, the “Apparent catalytic efficiency, hepsin” value in the assay with Hepsin is reported as ~10^5 M^−1s^−1.
In the case of “GPAGMKGL (also: Mca fluorophore and Dnp quencher, places not given here) [MMP9_1, FRET substrate with Mca fluorophore and Dnp quencher]”, the “Substrate cleavage activity in the end-point screen” value in assay [1] (conditioned media) is listed as “high activity”. Further, in assay [1], the “Ratio of tumor vs control activity” value is recorded as “approximately 4 fold”. Further, in assay [2], the “Secreted activity in conditioned media, steady-state kinetics” value was “Secreted activity was measured”.
